Holding throughout (assay): SPR; Biacore T200; […] (0.01 M HEPES, 0.15 M NaCl, 3 mM EDTA, 0.05% surfactant P20, […]
Background: SPR reads the build-up and loss of mass on a sensor chip optically.

Assay [1] has as its target SARS-CoV-2 spike protein RBD, Omicron variant, sfGFP fusion (SARS-CoV-2) (UniProt P0DTC2).
Assay [2] has as its target SARS-CoV-2 spike protein RBD, Alpha variant, sfGFP fusion (SARS-CoV-2) (UniProt P0DTC2).
In assay [3] the target is SARS-CoV-2 spike protein RBD, Delta variant, sfGFP fusion (SARS-CoV-2) (UniProt P0DTC2).

Regarding Jacalin (natural protein), the Kd in assay [1] was found to be 478 nM; in assay [2], 320 nM; in assay [3], 339 nM.
“Recombinant Microcystis viridis NIES-102 lectin (rMVL) (from UniProt Q9RHG4 1-114) (natural protein)”: the Kd in assay [1] was determined as 2730 nM.

A word on the Kd: it is the equilibrium constant for the complex coming apart.

Values taken from publication PMC11203576.
